The values below come from the nanobody polyreactivity screen of Harvey et al. (2022).

This data set can be described thus: yeast display, Sf9 membrane polyspecificity reagent, FACS + sequencing; frameworks hold sequencing errors. The method, boiled down: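 After 36–48 hours of galactose induction, yeast (Saccharomyces cerevisiae BJ5465) displaying a synthetic nanobody library were stained at 4 °C for 1 hour with 10% biotinylated, detergent-solubilized Sf9 membrane reagent. Streptavidin microbeads enriched the stained cells before FACS sorting into low and high (top ~1%) gates on anti-HA and streptavidin fluorescence. Each clone's polyreactivity label reflects its gate of origin.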
Take “QVQLVESGGGLVQAGGSLRLSCAASGLIYTPYAMGWYRQAPGKERELVAAINYGGSRTYYADSVKGRFTISRDNAKNTVYLQMNSLKPEDTAVYYCNKPGNYVWRRSWDFDYWGQGTQVTVSS”: the “polyreactivity (PSR sort gate)” value was “high polyreactivity”. The entry for “QVQLVESGGGLVQAGGSLRLSCAASGFNFTLNTMGWYRQAPGKERELVAAINSGDSTYADSVKGRFTISRDNAKNTVYLQMNSLKPEDTAVYYCNADPDWWYPFNYWGQGTQVTVSS” is “low polyreactivity”. The entry for “QVQLVESGGGLVQAGGSLRLSCAASGRTFGHYAMGLYRQAPGKERELVADITRRGGSTSYADSVKGRFTISRDNAKNTVYLQMNSLKPEDTAVYYCNKAADGSSHYDYWGQGTQVTVSS” is “low polyreactivity”; for “QVQLVESGGGLVQAGGSLRLSCAASGIIFRLNAMGWYRQAPGKERELVAAIRRRGGSTYYADSVKGRFTISRDKAKNTVYLQMNSLKPEDTAVYYCAKDPHGSDFGYWGQGTQVTVSS” it is “low polyreactivity”. Then “QVQLVESGGGLVQAGGSLRLSCAASGSIFANYAMGWYRQAPGKERELVAAITFSSGDSTYYADSVKGRFTISRDNAKNTVYLQMNSLKPEDTAVDYCATVTYGWSGYDYWGQGTQVTVSS”, with “low polyreactivity”. As for “QVQLVESGGGLVQAGGSLRLSCAASGFTFYYYAMGWYRQAPGKESDLVAAISWSGGTTYYADSVKGRFTISRDNAKNTVYFQMNSLKPEDPAVYYCAADIRDPGVPMDYWGQGTQVTVSS”, the “polyreactivity (PSR sort gate)” value is listed as “low polyreactivity”. The entry for “QVQLVESGGGLVQAGGSLRLSCAASGFTWSYAMGWYRQAPGKERELVATISDGVSTNYADSVKGRFTISRDNAKNTVYLQMNSLKPEDTAVYYCAARYTSWGMGYWGQGTQVTVSS” is “low polyreactivity”; for “QVQLVESGGGLVQAGGSLRLSCAASGSIFYLYAMGWYRQEPGKERELVAAITSGDSTTYADSVKGRFTISRDNAKNTVYLQMNSLIPEDTAVYYCAADWPGLVGYHNSAENDYWGQGTQVTVSS” it is “low polyreactivity”; for “QVQLVESGGGLVQAGGSLRLSCAASGFTFLPAYAMGWYRQAPGKERELVAAITRGGSTYYADSVKGRFTISRDNAKNTVYLQMNSLKPEDSAVYYCNADQKFGFYRSVGDDYWGQGTQVTVSS” it is “low polyreactivity”. Then “QVQLVESGGGLVQAGGSLRLSCAASGSILSRYAMGWYRQAPGKERELVATITRRGGSTFYADSVKGRFTISRDNAKNTVYLQMNSLKPEDTAVYYCAVGRLFWGQGTQVTVSS”, with “low polyreactivity”. “QVQLVESGGGLVQAGGSLRLSCAASGITFLVYAMGWYRQAPGKERELVAAISADAGGTYYADSVKGRFTISRDNAKNTVYLQMNSLKPEDTAVYYCNVDGRSDGDDYWGQGTQVTVSS”: the “polyreactivity (PSR sort gate)” value is recorded as “low polyreactivity”. In the case of “QVQLVESGGGLVQAGGSLRLSCAASGSIFRYNAMGWYRQAPGKERELVAAISGRGTSTYYADSVKGRFTISRDNAKNTVYLQMNSLKPEDTAVYYCAAVYFRTFLVEYYYWGQGTQVTVSS”, the “polyreactivity (PSR sort gate)” value is “high polyreactivity”. For the sequence “QVQLVESGGGLVQAGGSLRLSCAASGRTFWPYVMGWYRQAPGKERELVASITRSGGTTNYADSVKGRFTISRDNAKNTVYLQMNSLKPEDTAVYYCNARTVYSWSREYNYWGQGTQVTVSS”, the “polyreactivity (PSR sort gate)” value was “high polyreactivity”.

Regarding “QVQLVESGGGLVQAGGSLRLSCAASGITFLPYAMGWYRQAPGKERELVAAITRGGGSTYADSVKGRFTISRDNAKYTVYLQMKSLKPEDTAVYYCAKRLGRVSWYEDYDYWGQGTEVTVSS”, the “polyreactivity (PSR sort gate)” value is “low polyreactivity”. As for “QVQLVESGGGLVQAGGSLRLSCAASGSIFGGYGMGWYRQAPGTERELVAAITSGSSTYYADSVKGRFTISRDNAKNTVYLQMNSLKPEDTAVYYCAARPYPHSAYEGDYWGRGTQVTVSS”, the “polyreactivity (PSR sort gate)” value is reported as “low polyreactivity”.

Regarding “QVQLVESGGGLVQAGGSLRLSCAASGRILADNAMGWYRQAPGKERELVAAISESGGSTYYADSVKGRFTISRDNAKNTVYLQMNSLKAEDTAVYYCAADTASIYYEYYYWGQGTQVTVSS”, the “polyreactivity (PSR sort gate)” value is listed as “low polyreactivity”.
